The values below come from patent US20250034594A1, “RNA-GUIDED GENOME RECOMBINEERING AT KILOBASE SCALE” (THE BOARD OF TRUSTEES OF THE LELAND STANFORD JUNIOR …, priority 2021, published 2025).

Common to all, as to format: cell-based
In one experiment the test system is gene editing with Cas9. As to the kind of experiment: Screen of 322 new SSAP proteins, gene editing activity with Cas9 (Table 5). Also noted: Cas9 with SSAP activity: scale not given here. In outline: (§1)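 Editing screen of 322 newly identified, synthesized SSAPs, each co-used with Cas9 and with dCas9.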
The test system of another experiment is gene editing with dCas9. As to the kind of experiment: Screen of 322 new SSAP proteins, gene editing activity with dCas9 (Table 5). Also noted: dCas9 with SSAP activity: scale not given here. The essentials: as §1
Experiment [1] deals with gene editing with Cas9 and dCas9. Kind of experiment: Screen of 322 new SSAP proteins, activity across all experiments (Cas9 and dCas9, Table 5). Also noted: scale not given here. In outline: as §1

B1: SSAP_313: SEQ ID NO: 482; Pedobacter nototheniae (protein, listed as Pedobacter nototheniae)
chain: STEQSQQQTAARVPAKFQEGTVDSILKRVSDFQNTGELVLPANYIPENAVRAAWLMLMETTDRNDKPAIEVCTKESIANAFLEMVTKGLSVVKKQCYFVVYGNKLSLEDSYIGKIAIAKREAGVKEVNAVTIYEGDIFKYENDIETGRKRILEHKQELKNINPDKIVGA
Regarding B1, in the experiment with gene editing with Cas9, the “Cas9 with SSAP activity” value is given as −0.432 and the “Cas9 with SSAP activity (normalized)” value is −0.643. Moreover, in the experiment on gene editing with dCas9, the “dCas9 with SSAP activity” value was −4.259 and the “dCas9 with SSAP activity (normalized)” value is on record as −1.301. Moreover, the “Activity across all experiments” value in experiment [1] was −2.345.

B2: SSAP_164: SEQ ID NO: 333; Clostridium fimetarium (protein, listed as Clostridium fimetarium)
chain: ETIDIKQELASQAQTDSKKEVKLTKAMSIAEMIKAMMPEIKRALPSMITPERFTRIALSALNNTPELQACTPMSFISALLNAAQLGLEINSPLGHAYLIPYKNKGVLECQFQIGYLGLIALAYRNELMQTIQAQCVYENDEFLYEYGLNPKLVHRPATSDRGEPVFFYGLFKMINSGFGFCVMSKQEMDEFARTYSKGLASSFSPWKTSYNEMAKKTVIKQALKYAPIKTDFQKALSTDESIKYAISEDMTEAVNEIVSQNTEVA
For B2, in the experiment on gene editing with Cas9, the “Cas9 with SSAP activity” value is −2.221 and the “Cas9 with SSAP activity (normalized)” value is −0.998. Also, in the experiment on gene editing with dCas9, the “dCas9 with SSAP activity” value is recorded as −4.310 and the “dCas9 with SSAP activity (normalized)” value is on record as −0.557. Besides, in experiment [1], the “Activity across all experiments” value is −3.266.

B3: SSAP_14: SEQ ID NO: 183 (protein)
chain: TTALQTLTNKLAERFEMGDGSGLVETLKSSAFAGATVSDAQMIALLVIANQYQLNPWTKEIYAFPGGNGGLTPIVGVDGWVRIINREPQYDGMEFHFTDDYSACTCTIYRKDRSKPIVVTEFMGECKKSSPAWNSHPKRMLRHKAMIQCARLAFGFTGIYDQDEAERIAENEKPPKNITPQNNVVETTAVELISEEQLSQIRQLMQVTGTEEAKILAYIGVQALNQIPKSQAEAVIKKLNLTLDKQNAEKADNGESVGEEIPL
Regarding B3, in the experiment on gene editing with Cas9, the “Cas9 with SSAP activity” value is −0.331 and the “Cas9 with SSAP activity (normalized)” value is listed as −0.351. In the experiment with gene editing with dCas9, the “dCas9 with SSAP activity” value is on record as −4.263 and the “dCas9 with SSAP activity (normalized)” value is listed as −0.702. Also, the “Activity across all experiments” value in experiment [1] is recorded as −2.297.

B4: SSAP_76: SEQ ID NO: 245 (protein)
chain: ANELGIFSVDNLNMTTIKQYLDGGGKASDAELVLLINLCKQNNMNPFMKEVYFIKYGNQPAQIVVSRDFYRKRAFQNPNFAGIEVGVIVLNKDGVLEHNEGTFKTHEQELVGAWARVHLKNTEIPVYVAVSYDEYVQMKDGHPNKMWTNKPCTMLGKVAESQALRMAFPAEFSGTYGEEELPEPEKEPREVNGVKEPDRAQIESFDKEDYAARKIEELKEKAQPQKEVVKETGEVIDEITAEDF
Regarding B4, in the experiment with gene editing with Cas9, the “Cas9 with SSAP activity” value is reported as −0.308 and the “Cas9 with SSAP activity (normalized)” value is −0.267. In the experiment with gene editing with dCas9, the “dCas9 with SSAP activity” value is listed as −4.256 and the “dCas9 with SSAP activity (normalized)” value is −0.591. The “Activity across all experiments” value in experiment [1] was −2.282.

B5: SSAP_226: SEQ ID NO: 395; Companilactobacillus furfuricola (protein, listed as Companilactobacillus furfuricola)
chain: VNNLAKLPIQTLVKEPKIVEKFESVLGNKSAQFVTSLINVVNSNQSLKNVDQMSVVASAMVAASLDLPINQDLGYMWLVPYGGKAQPQMGYKGYIQLAQRTGQYKHLNAVAVYEDEFQSYNPLTEQLDYEPHFKDRDSSEKPVGYVGYFELTSGFEKTVYWTRKQIDDHRQSFSKMSGKSKPSGVWATNFDAMALKTVLRNLISKWGPMSVEMQKAYESDEHATTISANDIKDIEVQEQEPATDVSQLINGSATEVNVNDSTTNSKDSE
For the molecule B5, in the experiment on gene editing with Cas9, the “Cas9 with SSAP activity” value is recorded as −1.843 and the “Cas9 with SSAP activity (normalized)” value is −1.377. Further, in the experiment on gene editing with dCas9, the “dCas9 with SSAP activity” value is −4.191 and the “dCas9 with SSAP activity (normalized)” value is recorded as −0.610. The “Activity across all experiments” value in experiment [1] is −3.017.

B6: SSAP_299: SEQ ID NO: 468; Paenibacillus sp. JCM 10914 (protein, listed as Paenibacillus sp.)
chain: TMDYVTKIQDALDRELDAKHDALPSGFKKTRFSENCRAYVKDYKDLQKYDAEEVASVLFKGAVLGLDFLAKECHVITEGSALRFQTDYKGEMTLVKKYSVRPILDIYAKNVREGDDFREEISGGKPLIHFNPRAFNNSKITGSFAVALFTDGGMVYETMPAEEIESIREHYGKNPGSDTWEKSQGEMYKRTVLRRLCKTIEIDFDAEQSLAYEAGSSFEFDREQQPKKRSPFNPPEVEESEVLSNDGITETQ
Turning to B6, in the experiment with gene editing with Cas9, the “Cas9 with SSAP activity” value is −4.631 and the “Cas9 with SSAP activity (normalized)” value is on record as −0.809. Moreover, in the experiment with gene editing with dCas9, the “dCas9 with SSAP activity” value is −4.250 and the “dCas9 with SSAP activity (normalized)” value is −0.686. The “Activity across all experiments” value in experiment [1] is recorded as −4.441.

B7: SSAP_250: SEQ ID NO: 419; Streptococcus pseudoporcinus (protein, listed as Streptococcus pseudoporcinus)
chain: ANQLTVVNTLQSDAVKEKFEAVMGEKANGFVSSVLSVVTNNNLLAKADFNSVYTSAMKAAVLDLPVEPSLGMAYIVPYKGKAQFQIGYKGLIQLAQRSGKVTKLNSGKIYKGQFKSYNALSEELDIDDIYTPKEDEEVVGYFGYMKLSNGFEKITYWTKERVEKHGKKYSQSYDSKFSPWQTNFDAMAEKTVLKSILSTYAPLTIEMQNANDFDNGKNTGIEPLEVKDVTPENDNESLLSDLLEDEPSVDAETGEIMENTELDLDYGSINAK
Regarding B7, in the experiment with gene editing with Cas9, the “Cas9 with SSAP activity” value is −4.531 and the “Cas9 with SSAP activity (normalized)” value is on record as −1.341. In addition, in the experiment on gene editing with dCas9, the “dCas9 with SSAP activity” value is −4.273 and the “dCas9 with SSAP activity (normalized)” value is listed as −1.117. Also, the “Activity across all experiments” value in experiment [1] is on record as −4.402.

B8: SSAP_58: SEQ ID NO: 227; Pirellula sp. SH-Sr6A (protein, listed as Pirellula sp.)
chain: SEATKEAKPETAIAKKPNGIKDWLKSDALKTQIASVAPKHMAPERVMRIALNAVSRTPKLADCTPESFMRCLLDLSSWGLEPDGRHAHLIPYGTECTLVLDYKGLVTLAYRSGWVKKIHADVVFEGDIFVYSLGTVCQHIPWEFRDDANKPEHKGHFRAAYCVVTMADGIEKHEVMTASEIDAIKAKSRSGNSGPWKDHYTEMAKKTVYRRASKWLPLSPEQADAMERDDDRIIDAVSVAVTQRLSKAAMPLIGANETGDTE
With B8, in the experiment with gene editing with Cas9, the “Cas9 with SSAP activity” value is listed as −1.710 and the “Cas9 with SSAP activity (normalized)” value is listed as −0.437. Also, in the experiment on gene editing with dCas9, the “dCas9 with SSAP activity” value is reported as −4.326 and the “dCas9 with SSAP activity (normalized)” value is reported as −0.647. For the same molecule, the “Activity across all experiments” value in experiment [1] is recorded as −3.018.

B9: SSAP_272: SEQ ID NO: 441; Clostridium cadaveris (protein, listed as Clostridium cadaveris)
chain: ATNSSLKNQLSKKENVTIGNTMQGLLNNPKMKKRFEEILDKKAPQYMSSILNLYNGDTSLQKCEPMSVLSSSMIAATMDLPVDKNLGYAWIVPYKNKAQFQMGYKGYIQLALRTGQYKHINAIEIHEGELVNWNPLTEELEIDFTKKESDKIIGYAGYFELLNGFKKSTYWTKTQIENHRKKFSKSDYGWNKDFDAMAIKTVIRNMLSKWGILSIEMQNAYTADENIIKDSFIDDSENVSANIEDLVEADYTVNQDSLESKEEFEGTPLE
B9: in the experiment with gene editing with Cas9, the “Cas9 with SSAP activity” value is 0.254 and the “Cas9 with SSAP activity (normalized)” value was determined as 0.626. Besides, in the experiment on gene editing with dCas9, the “dCas9 with SSAP activity” value came out at 0.863 and the “dCas9 with SSAP activity (normalized)” value was 0.407. Also, the “Activity across all experiments” value in experiment [1] stood at 0.558.
